Measured values reported in article PMC7929502.

Target: T1, human Derlin-1 (hDERL1), full length, purified from Expi293F cells (human), Q9BUN8
T1 chain: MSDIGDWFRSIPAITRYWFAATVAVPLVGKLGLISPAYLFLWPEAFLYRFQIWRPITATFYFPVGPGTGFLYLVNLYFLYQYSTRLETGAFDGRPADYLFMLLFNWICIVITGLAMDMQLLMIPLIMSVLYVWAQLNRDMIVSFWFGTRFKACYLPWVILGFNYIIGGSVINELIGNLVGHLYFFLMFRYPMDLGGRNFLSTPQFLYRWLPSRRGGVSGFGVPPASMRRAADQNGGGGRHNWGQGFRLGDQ
Experiment: cryo-EM structure
Conditions: remark: other sources report otherwise

- stoichiometry N: 4
B1: human Derlin-1 (hDERL1), full length, purified from Expi293F cells, Q9BUN8-1 1-251 (natural protein)
chain: T1 chain
